Test results from patent US20220227882A1 (TRUSTEES OF TUFTS COLLEGE, published 2022).

T1: Full-length human ADAM8 on cells (HEK293-ADAM8 stable or transfected cells); also endogenous ADAM8 of breast … (human, UniProt P78325 17-824)
T1 construct: On cells the proform, the active form and the remnant form can all be present; also called native ADAM8; HEK293-A8
T1 sequence: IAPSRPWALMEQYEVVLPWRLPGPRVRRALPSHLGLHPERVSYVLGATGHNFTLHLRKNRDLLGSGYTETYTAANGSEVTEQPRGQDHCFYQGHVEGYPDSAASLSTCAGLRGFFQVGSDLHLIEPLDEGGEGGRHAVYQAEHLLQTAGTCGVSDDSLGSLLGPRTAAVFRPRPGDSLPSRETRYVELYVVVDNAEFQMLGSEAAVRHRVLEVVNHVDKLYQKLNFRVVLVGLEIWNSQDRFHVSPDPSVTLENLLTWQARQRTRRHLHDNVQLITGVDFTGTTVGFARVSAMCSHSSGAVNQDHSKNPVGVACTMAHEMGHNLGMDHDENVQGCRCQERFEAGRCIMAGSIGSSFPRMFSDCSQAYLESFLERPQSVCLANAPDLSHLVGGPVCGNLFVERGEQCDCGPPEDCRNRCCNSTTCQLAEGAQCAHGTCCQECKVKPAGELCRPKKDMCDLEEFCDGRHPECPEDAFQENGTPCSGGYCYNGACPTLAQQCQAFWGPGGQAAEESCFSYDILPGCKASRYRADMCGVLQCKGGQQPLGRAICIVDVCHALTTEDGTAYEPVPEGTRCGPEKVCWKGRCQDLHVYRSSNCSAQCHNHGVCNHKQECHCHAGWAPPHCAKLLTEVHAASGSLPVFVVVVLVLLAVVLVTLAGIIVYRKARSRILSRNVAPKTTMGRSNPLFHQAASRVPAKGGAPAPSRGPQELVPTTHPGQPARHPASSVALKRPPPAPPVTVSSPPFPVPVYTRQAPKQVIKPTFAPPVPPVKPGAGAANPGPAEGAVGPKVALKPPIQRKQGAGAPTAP

T2: Recombinant human ADAM8 (rHuADAM8) ectodomain protein (aa 17-497), ACRO Biosystems AD8-H5223 (human, UniProt P78325 17-497)
T2 construct: Bought protein made in HEK293 cells; The protein clips off its own prodomain (aa 17-191); also called rhADAM8; immunogen
T2 sequence: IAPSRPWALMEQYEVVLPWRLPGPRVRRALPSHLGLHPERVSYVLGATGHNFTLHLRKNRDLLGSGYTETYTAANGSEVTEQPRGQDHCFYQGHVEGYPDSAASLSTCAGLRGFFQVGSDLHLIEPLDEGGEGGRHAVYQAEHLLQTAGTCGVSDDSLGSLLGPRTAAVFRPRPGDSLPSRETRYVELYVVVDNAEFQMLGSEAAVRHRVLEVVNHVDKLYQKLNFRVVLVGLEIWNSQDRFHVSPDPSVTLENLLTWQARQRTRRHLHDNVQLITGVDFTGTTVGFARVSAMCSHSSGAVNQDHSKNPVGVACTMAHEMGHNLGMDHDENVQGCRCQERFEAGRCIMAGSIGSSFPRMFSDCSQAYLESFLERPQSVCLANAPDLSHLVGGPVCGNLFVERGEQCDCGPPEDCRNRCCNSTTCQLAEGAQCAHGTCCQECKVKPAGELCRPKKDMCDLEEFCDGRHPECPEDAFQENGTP


Key:
[1] = target: T1, Full-length human ADAM8 on cells …; assay: FACS, HEK293-ADAM8 cells, antibody 10 µg/ml
[2] = target: T1, Full-length human ADAM8 on cells …; assay: FACS, HEK293-ADAM8 cells, antibody 0.1 µg/ml
[3] = target: T2, Recombinant human ADAM8 (rHuADAM8) …; assay: ELISA, coated rHuADAM8
Procedure: ELISAs were performed to assess the anti-ADAM8 antibodies for binding to rHuADAM8 during preparation and screening stages, using mouse sera, hybridoma supernatants and purified mouse and chimeric ADPs. ELISA plates (96-well) were coated with 1 μg/ml rHuADAM8 (Acro Biosystems, AD8-H5223) overnight at 4° C. Plates were washed three times with phosphate buffered saline (PBS) containing 0.05% Tween 20 (PBST) and blocked with 1% bovine serum albumin (BSA) in PBST at 37° C. for 1 hr. Plates were then exposed to sera, supernatants or purified antibodies for 1 hour at 37° C.
For analysis of antibodies in the serum of mice, pre-bleed and test bleed samples in 6 dilutions ranging from 1:100 to 1:10,000,000 were tested. For analysis of antibodies in hybridoma clone and subclone supernatants, plates were subjected to 50 μl of supernatants. A test bleed sample (1:1000) and hybridoma culture medium were used as positive and negative controls, respectively. For purified antibody characterization, coated plates were incubated with eight increasing concentrations of each specific ADP ranging from 10⁻⁵ to 10³ nM. Normal mouse IgG (1 μg/ml) was used as a negative control to indicate the level of general non-specific binding and a test bleed sample (1:100) was used as a positive control. Samples were washed three times with PBST and incubated for 30 minutes at 37° C. with a secondary goat anti-mouse IgG (Fc specific)-HRP antibody (Sigma A0168, 1:5000). After washing three times with PBST, the signal was developed with addition of 100 μl of the horseradish peroxidase substrate 3,3′,5,5′-Tetramethylbenzidine (TMB) for 10 minutes at room temperature, followed by quenching with 50 μl 1N HCl. Signal was read in a 96-well spectrophotometer at an optical density (OD) of 450 nm.

[4] = target: T2, Recombinant human ADAM8 (rHuADAM8) …; assay: Biacore SPR, ADP captured by anti-mouse Fc, rHuADAM8 as analyte
Procedure: (§1) For Biacore assays, each ADP was used as the ligand in a multiple cycle kinetics method performed on a Biacore™ T200 surface plasmon resonance system (GE Healthcare Life Sciences) machine. ADP proteins were captured using anti-mouse Fc IgG attached to a dextran matrix, and rHuADAM8 (Acro Biosystems, AD8-H5223) added as the analyte at concentrations ranging from 3.75 nM to 200 nM. HBS-EP+ (10 mM HEPES, 0.15 M NaCl, 3 mM EDTA, 0.05% Surfactant P20) running buffer was passed at a flow rate of 30 μl/min and antigen injected at 30 μl/min. The association and dissociation phases were carried out for 180 s and 600 s, respectively. Surface regeneration was performed for 30 s at 30 μl/min of Glycine pH 1.5. Values for association rate constant (kₐ), dissociation rate constant (kd) and equilibrium dissociation constant (KD) were calculated through the Biacore™ T200 Software.

[5] = target: T2, Recombinant human ADAM8 (rHuADAM8) …; assay: Biacore SPR, rHuADAM8 as analyte
Procedure: as §1

Row | Binder | MFI [1] | MFI [2] | EC50 [3] | koff [4] | kon [4] | Kd [5]
1 | ADP2 (antibody, V domains shown, also called mADP2; mouse ADP2) VH: EVKLVESGGGLVQPGGSLSLSCAASGFSFPDYYMSWVRQPPGKALEWLGFIRDSANGYTTEYIASVKGRFTFSRDNSQSILYLQMNALRAEDSATYYCARYSRYYGMDYWGQGTSVTVSS VL: SIVMTQTPKILLVSAGDRVTITCKASQTVNYDVAWYQQKPGQSPKPVIYFASNRYTGVPDRFTGSGFGTDFTFTISTVQAEDLAVYFCQQDYSAPWTFGGGTKLEIK | 158 MFI | 58.4 MFI | 0.029 nM | 0.000299 s⁻¹ | 89500 M⁻¹ s⁻¹ | 3.34 nM
2 | ADP3 (antibody, IgG1, V domains shown) VH: EVKLEESGGGLVQPGGSMKLSCAASGFTFSDAWMDWVRQSPEKGLEWVAEIRGKVNNLATYYVESVKGRFTISRDDSKSSVYLQMNSLRAEDTGIYYCLGRYDATYAMDYWGQGTSVTVSS VL: DVVMTQTPLSLPVSLGDQASISCRSSQSLVHSDGNTYLHWYLQKPGQSPKLLIYKLSNRFSGVPDRFSGSGSGTDFTLKISRVEAEDLGVYFCSQSTHVPWTFGGGTKLEIK | 86.9 MFI | 51.8 MFI | 0.049 nM | 0.000634 s⁻¹ | 34700 M⁻¹ s⁻¹ | 18.3 nM
3 | ADP13 (antibody, IgG1, V domains shown, also called mADP13; mouse ADP13) VH: EVQLQQSGPEMVKPGTSVKISCKASGYTFTDYYINWVKQSHGKSLEWIGDISPNIGGATYNPKFKGKAILTVDKSARTAYMELRSLTSEDSAVYCCTRGGSSYPYFYAMDYWGQGTSVTVSS VL: DIVMSQSPSSLAVSVGEKVTMSCKSSQSLLYSSNQKKYLAWYQQKPGQSPKLLIYWASTRESGVPDRFTGSGSGTDFTLTISSVKAEDLAVYYCQQFYSYPYTFGGGTKLEINR | 62.2 MFI | 7.1 MFI | 0.054 nM | 4.6e-05 s⁻¹ | 35400 M⁻¹ s⁻¹ | 1.3 nM
